Kd, koff and kon data for nine molecules are collected here from US20040175385A1 (University of California, published 2004).

Experiment [1] addresses T1, BoNT/A HC, recombinant binding domain (C-terminal domain of the heavy chain) of botulinum neurotoxin type A (Clostridium botulinum, UniProt P0DPI0 860-1296). In words: SPR BIAcore, IgG on chip, BoNT/A HC in flow.
Experiment [2] has as its target T1, BoNT/A HC, recombinant binding domain ….
For experiment [3] the target is unchanged. The experiment can be described thus: SPR BIAcore, HC on chip, scFv in flow.
For experiment [4] the target is unchanged. The experiment can be described thus: SPR BIAcore, scFv column of Table 6.
For experiment [5] the target is unchanged. In words: SPR BIAcore, Hc on chip, scFv in flow.
Experiment [6] addresses BoNT/A HC, recombinant binding domain (C-terminal domain of the heavy chain) of botulinum neurotoxin type A (Clostridium botulinum, UniProt P0DPI0 860-1296). In words: SPR BIAcore, HC on chip, scFv in flow. This is another data set of the same source.

Where two headings read alike, the source gives them in different places.

B1: C25 IgG (chimeric IgG, murine V domains, human C domains) (antibody, V domains shown)
VH: QVQLQESGGGLVKPGGSLKLSCAASGFTFSDYYMYWVRQTPEKRLEWVATISDGGSYTYYPDSVKGRFTISRDNAKNNLYLQMSSLKSEDTAMYYCSRYRYDDAMDYWGQGTTVTVSS
VL: DIELTQSPASLAVSLGQRATISCRASESVDSYGHSFMQWYQQKPGQPPKLLIYRASNLEPGIPARFSGSGSGTDFTLTINPVEADDVATYYCQQSNEDPFTFGSGTKLEIKR
Regarding B1, in experiment [1], the Kd was 1.69 nM, the koff turned out to be 0.00224 s⁻¹ and the kon was 1.32e+06 M⁻¹ s⁻¹. In addition, in experiment [2], the Kd turned out to be 11 nM.

B2: S25 IgG (chimeric IgG, murine V domains, human C domains) (antibody, V domains shown)
VH: QVKLQQSGAELVRPGASVKLSCKASGYSLTSYWMNWVKQRPQGGLEWIGNIHPSDSDTRFNQKFEDKATLTVDTSSSTAYMQLSSPTSEDSAVYYCARGLYNGFWYFDVWGQGTTVTVSS
VL: DIELTQSPALMAASPGEKVIITCSVSSSISSSNLHWYQQKSGTSPKPWIYGTSNLASQVPVRFSGSGSGTSYSLTISSMEAEDAATYYCQQWSSYPLTFGAGTKLEIKR
Turning to B2, in experiment [1], the Kd worked out at 3.9 nM, the off-rate constant (koff) was found to be 0.0057 s⁻¹ and the kon is 1.46e+06 M⁻¹ s⁻¹.

B3: scFv 3D12 (human, immune library) (scFv)
scFv: QVQLVQSGGGVVHPGRSLKLSCAGSGFTFSDYDMHWVRQAPGKGLEWVAVMWFDGTEKYSAESVKGRFTISRDNSKNTLFLQMNSLRADDTAVYYCAREPDWLLWGDRGALDVWGQGTTVTVSSGGGGSGGGGSGGGGSDIVMTQSPSTLSASVGDRVTITCRASQSISSWLAWYQQKPGKAPKLLMYEASSLESGVPSRFSGSGSGTEFTLTISSLQPDDFAAYYCQHYNTYPYTFGQGTKLEIK
On to B3, for which, in experiment [3], the Kd is 36.9 nM, the koff was determined as 0.0005 s⁻¹ and the kon was 13000 M⁻¹ s⁻¹. In experiment [4], the Kd was 36.9 nM, the koff was found to be 0.0005 s⁻¹ and the kon came to 13000 M⁻¹ s⁻¹.

B4: scFv S25 (scFv)
scFv: QVKLQQSGAELVRPGASVKLSCKASGYSLTSYWMNWVKQRPQGGLEWIGNIHPSDSDTRFNQKFEDKATLTVDTSSSTAYMQLSSPTSEDSAVYYCARGLYNGFWYFDVWGQGTTVTVSSGGGGSGGGGSGGGGSDIELTQSPALMAASPGEKVIITCSVSSSISSSNLHWYQQKSGTSPKPWIYGTSNLASQVPVRFSGSGSGTSYSLTISSMEAEDAATYYCQQWSSYPLTFGAGTKLEIKR
As to B4, the Kd in experiment [5], in experiment [3] and in experiment [4] was 73 nM each time. The koff in experiment [5] was determined as 0.00082 s⁻¹; in experiment [3] it was 0.00082 s⁻¹; in experiment [4], 0.00081 s⁻¹. Moreover, the kon in experiment [5], in experiment [3] and in experiment [4] was 11000 M⁻¹ s⁻¹ in each case.

B5: scFv C39 (scFv)
scFv: QVQLQESGGGSVKPGGSLKLSCAASGFTFSDYYMSWVRQTPEKRLEWVATISDGGSYTYYPDSVKGRFTISRDNAKNNLYLQMSSLKSEDTAIYYCVRYRYDEGLDYWGQGTTVTVSSGGGGSGGGGSGGGGSDIELTQSPASLAVSLGRRATISCRASESVDSYGHSFMHWYQQKPGQPPKLLIYLASNLESGVPARFSGSGSRTDFTLTIDPVEADDAATYYCQQNNEDPYTFGGGTKLEIKR
For the molecule B5, in experiment [5], the Kd came out at 2.3 nM, the koff was found to be 0.00032 s⁻¹ and the kon is 140000 M⁻¹ s⁻¹.

B6: scFv C25 (scFv)
scFv: QVQLQESGGGLVKPGGSLKLSCAASGFTFSDYYMYWVRQTPEKRLEWVATISDGGSYTYYPDSVKGRFTISRDNAKNNLYLQMSSLKSEDTAMYYCSRYRYDDAMDYWGQGTTVTVSSGGGGSGGGGSGGGGSDIELTQSPASLAVSLGQRATISCRASESVDSYGHSFMQWYQQKPGQPPKLLIYRASNLEPGIPARFSGSGSGTDFTLTINPVEADDVATYYCQQSNEDPFTFGSGTKLEIKR
For B6, the Kd in experiment [5], in experiment [3] and in experiment [4] was 1.1 nM in each case. The koff in experiment [5], in experiment [3] and in experiment [4] was 0.00033 s⁻¹ in each case. Also, the kon in experiment [5], in experiment [3] and in experiment [4] was 300000 M⁻¹ s⁻¹ in each case.

B7: 3D12 IgG (fully human IgG) (antibody, V domains shown)
VH: QVQLVQSGGGVVHPGRSLKLSCAGSGFTFSDYDMHWVRQAPGKGLEWVAVMWFDGTEKYSAESVKGRFTISRDNSKNTLFLQMNSLRADDTAVYYCAREPDWLLWGDRGALDVWGQGTTVTVSS
VL: DIVMTQSPSTLSASVGDRVTITCRASQSISSWLAWYQQKPGKAPKLLMYEASSLESGVPSRFSGSGSGTEFTLTISSLQPDDFAAYYCQHYNTYPYTFGQGTKLEIK
Turning to B7, in experiment [1], the Kd worked out at 0.0562 nM, the koff was found to be 0.000127 s⁻¹ and the kon turned out to be 2.26e+06 M⁻¹ s⁻¹. In experiment [2], the Kd came to 0.55 nM.

B8: scFv 1F3 (scFv)
scFv: EVQLQQSGARLVKPGASVKLSCKASGYTFTSFWMHWVKQRPGRGLEWIGRLDPNSGETKYNEKFKSKATLTVDKPSSTAYMELSSLTSEDSAVYYCAREAYGYWNFDVWGTGTTVTVSSGGGGSGGGGSGGGGSDIELTQSPASMSASPGEKVTMTCRATSSVSSSYLHWYQQKSGASPKLWIYSASNLASGVPSRFSGSGSGTSYLSTISSVEAEDAATYYCQQYIGYPYTFGGGTKLEIKR
Consider B8, for which, in experiment [5], the Kd was determined as 12 nM, the koff worked out at 0.011 s⁻¹ and the kon was 920000 M⁻¹ s⁻¹.

B9: scFv 2B6 (human, non-immune library, Tables 9 and 10) (scFv)
chain: VKLVESGPGLVKPSQSLSLTCTVTGYSITSDYAWNWIRQFPGNKLEWMGYINYDGSNNYNPSLKNRISITRDTSKNQFFLKLNSVTSEDTATYYCARAGDGYYVDWYFDVWGTGTTVIVSSGGGGSGGGGSGGGGSYIELTQSPASLAVSLGQRATTSCRASESVDSYGNSFMHWYQQKPGQPPKLLIYLASNLESGVPARFSGSGSRTDFTLTIDPVEADDAATYYCQQNNEDPYTFGGGTKLEIKS
For B9, in experiment [6], the Kd came out at 71.5 nM, the koff turned out to be 0.0078 s⁻¹ and the kon worked out at 109000 M⁻¹ s⁻¹.
